According to publication PMC5027287, “Real-time observation of DNA recognition and rejection by the RNA-guided endonuclease Cas9”:

How the values were obtained:
Cas9 (SpCas9) [1] = molecular target: T1, Cas9 (SpCas9) (Streptococcus pyogenes, UniProt Q99ZW2 1-1368); assay: smFRET; 20 nM Cas9-RNA; koff <0.006 s-1, lifetime >3 min (photobleaching limit); Immobilized biotin/Cy3 DNA, 20 nM Cas9-RNA (Cy5 crRNA), 0.1 s frames; imaging buffer, pH and temperature not in the material; kon ~6e6 M-1 s-1; conditions: protein: recombinant, tags: His10-MBP removed by TEV, label: Cy3 (DNA), biotin (DNA), DNA duplex 1:2, 5' overhang 2 nt on strand 1, crRNA 3 : tracrRNA 4, guide pairs strand 2
Cas9 (SpCas9) [2] = molecular target: T1, Cas9 (SpCas9); assay: smFRET; 20 nM; bound fraction as cognate; Immobilized biotin/Cy3 DNA, 20 nM Cas9-RNA (Cy5 crRNA), 0.1 s frames; imaging buffer, pH and temperature not in the material; kon ~6e6 M-1 s-1; conditions: protein: recombinant, tags: His10-MBP removed by TEV, label: Cy3, biotin, as N1
Cas9 (SpCas9) [3] = molecular target: T1, Cas9 (SpCas9); assay: smFRET; 20 nM; bound fraction as cognate; bound lifetime ~16 s; Immobilized biotin/Cy3 DNA, 20 nM Cas9-RNA (Cy5 crRNA), 0.1 s frames; imaging buffer, pH and temperature not in the material; kon ~6e6 M-1 s-1; conditions: protein: recombinant, tags: His10-MBP removed by TEV, label: Cy3, biotin, as N1

T1 sequence (Q99ZW2 whole entry): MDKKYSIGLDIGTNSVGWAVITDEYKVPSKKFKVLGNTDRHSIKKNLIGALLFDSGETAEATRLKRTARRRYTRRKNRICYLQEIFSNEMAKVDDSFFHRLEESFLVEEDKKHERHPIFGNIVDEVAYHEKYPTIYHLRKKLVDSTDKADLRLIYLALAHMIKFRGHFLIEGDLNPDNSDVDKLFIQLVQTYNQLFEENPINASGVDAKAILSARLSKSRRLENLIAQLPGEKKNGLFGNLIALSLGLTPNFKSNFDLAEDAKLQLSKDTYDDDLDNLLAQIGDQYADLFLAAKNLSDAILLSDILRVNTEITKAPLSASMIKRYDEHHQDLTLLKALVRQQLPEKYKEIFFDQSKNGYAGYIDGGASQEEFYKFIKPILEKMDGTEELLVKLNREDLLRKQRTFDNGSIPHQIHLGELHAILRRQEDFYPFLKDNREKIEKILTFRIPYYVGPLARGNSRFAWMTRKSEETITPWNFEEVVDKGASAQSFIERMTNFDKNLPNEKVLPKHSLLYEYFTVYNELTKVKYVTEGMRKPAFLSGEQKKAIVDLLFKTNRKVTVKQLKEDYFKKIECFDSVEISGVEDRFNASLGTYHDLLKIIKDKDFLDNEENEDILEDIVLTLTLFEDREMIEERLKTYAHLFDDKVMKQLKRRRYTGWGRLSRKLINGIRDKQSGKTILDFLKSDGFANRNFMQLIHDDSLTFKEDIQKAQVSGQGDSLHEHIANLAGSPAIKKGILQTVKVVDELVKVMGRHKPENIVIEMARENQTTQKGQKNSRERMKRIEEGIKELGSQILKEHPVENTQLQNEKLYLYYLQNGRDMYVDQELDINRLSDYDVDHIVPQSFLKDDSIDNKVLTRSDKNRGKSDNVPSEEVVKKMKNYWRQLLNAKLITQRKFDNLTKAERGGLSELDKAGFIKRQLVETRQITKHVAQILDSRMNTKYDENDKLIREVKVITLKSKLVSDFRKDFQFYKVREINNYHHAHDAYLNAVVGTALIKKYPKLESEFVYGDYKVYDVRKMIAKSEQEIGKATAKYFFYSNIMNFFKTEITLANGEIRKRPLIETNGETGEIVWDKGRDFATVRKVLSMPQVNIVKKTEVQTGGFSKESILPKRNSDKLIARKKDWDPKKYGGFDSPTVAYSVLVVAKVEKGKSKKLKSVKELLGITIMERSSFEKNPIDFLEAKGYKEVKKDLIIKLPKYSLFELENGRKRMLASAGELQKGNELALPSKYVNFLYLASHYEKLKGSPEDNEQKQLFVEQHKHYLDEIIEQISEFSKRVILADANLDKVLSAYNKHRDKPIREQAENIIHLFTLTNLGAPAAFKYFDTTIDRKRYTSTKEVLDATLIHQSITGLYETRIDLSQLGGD

B1: Cognate DNA + guide RNA (mixed)
DNA 1: AACGCAACGTCGTCAGCTGTCTGCACAGCAGAAATCTCTGCTGACGCATAAAGATGAGACGCTGGAGTACAAACGTCAGCTTGCT
DNA 2: AGCAAGCTGACGTTTGTACTCCAGCGTCTCATCTTTATGCGTCAGCAGAGATTTCTGCTGTGCAGACAGCTGACGACGTTGCG
RNA 1: GACGCAUAAAGAUGAGACGCGUUUUAGAGCUAUGCUGUUUUG
RNA 2: GGACAGCAUAGCAAGUUAAAAUAAGGCUAGUCCGUUAUCAACUUGAAAAAGUGGCACCGAGUCGGUGCUUUUU
Cas9 (SpCas9) [1]
  binding result: binds

B2: 11-20mm (mixed)
DNA 1: AACGCAACGTCGTCAGCTGTCTGCACAGCAGAAATCTCTGCTCTGCGTATTTGATGAGACGCTGGAGTACAAACGTCAGCTTGCT
DNA 2: AGCAAGCTGACGTTTGTACTCCAGCGTCTCATCAAATACGCAGAGCAGAGATTTCTGCTGTGCAGACAGCTGACGACGTTGCG
RNA 1: GACGCAUAAAGAUGAGACGCGUUUUAGAGCUAUGCUGUUUUG
RNA 2: GGACAGCAUAGCAAGUUAAAAUAAGGCUAGUCCGUUAUCAACUUGAAAAAGUGGCACCGAGUCGGUGCUUUUU
Cas9 (SpCas9) [2]
  binding result: binds

B3: 9-20mm (mixed)
DNA 1: AACGCAACGTCGTCAGCTGTCTGCACAGCAGAAATCTCTGCTCTGCGTATTTCTTGAGACGCTGGAGTACAAACGTCAGCTTGCT
DNA 2: AGCAAGCTGACGTTTGTACTCCAGCGTCTCAAGAAATACGCAGAGCAGAGATTTCTGCTGTGCAGACAGCTGACGACGTTGCG
RNA 1: GACGCAUAAAGAUGAGACGCGUUUUAGAGCUAUGCUGUUUUG
RNA 2: GGACAGCAUAGCAAGUUAAAAUAAGGCUAGUCCGUUAUCAACUUGAAAAAGUGGCACCGAGUCGGUGCUUUUU
Cas9 (SpCas9) [3]
  binding result: binds

B4: 10-20mm (mixed)
DNA 1: AACGCAACGTCGTCAGCTGTCTGCACAGCAGAAATCTCTGCTCTGCGTATTTCATGAGACGCTGGAGTACAAACGTCAGCTTGCT
DNA 2: AGCAAGCTGACGTTTGTACTCCAGCGTCTCATGAAATACGCAGAGCAGAGATTTCTGCTGTGCAGACAGCTGACGACGTTGCG
RNA 1: GACGCAUAAAGAUGAGACGCGUUUUAGAGCUAUGCUGUUUUG
RNA 2: GGACAGCAUAGCAAGUUAAAAUAAGGCUAGUCCGUUAUCAACUUGAAAAAGUGGCACCGAGUCGGUGCUUUUU
Cas9 (SpCas9) [2]
  binding result: binds

B5: 17-20mm (mixed)
DNA 1: AACGCAACGTCGTCAGCTGTCTGCACAGCAGAAATCTCTGCTCTGCCATAAAGATGAGACGCTGGAGTACAAACGTCAGCTTGCT
DNA 2: AGCAAGCTGACGTTTGTACTCCAGCGTCTCATCTTTATGGCAGAGCAGAGATTTCTGCTGTGCAGACAGCTGACGACGTTGCG
RNA 1: GACGCAUAAAGAUGAGACGCGUUUUAGAGCUAUGCUGUUUUG
RNA 2: GGACAGCAUAGCAAGUUAAAAUAAGGCUAGUCCGUUAUCAACUUGAAAAAGUGGCACCGAGUCGGUGCUUUUU
Cas9 (SpCas9) [2]
  binding result: binds

B6: 12-20mm (mixed)
DNA 1: AACGCAACGTCGTCAGCTGTCTGCACAGCAGAAATCTCTGCTCTGCGTATTAGATGAGACGCTGGAGTACAAACGTCAGCTTGCT
DNA 2: AGCAAGCTGACGTTTGTACTCCAGCGTCTCATCTAATACGCAGAGCAGAGATTTCTGCTGTGCAGACAGCTGACGACGTTGCG
RNA 1: GACGCAUAAAGAUGAGACGCGUUUUAGAGCUAUGCUGUUUUG
RNA 2: GGACAGCAUAGCAAGUUAAAAUAAGGCUAGUCCGUUAUCAACUUGAAAAAGUGGCACCGAGUCGGUGCUUUUU
Cas9 (SpCas9) [2]
  binding result: binds

B7: 13-20mm (mixed)
DNA 1: AACGCAACGTCGTCAGCTGTCTGCACAGCAGAAATCTCTGCTCTGCGTATAAGATGAGACGCTGGAGTACAAACGTCAGCTTGCT
DNA 2: AGCAAGCTGACGTTTGTACTCCAGCGTCTCATCTTATACGCAGAGCAGAGATTTCTGCTGTGCAGACAGCTGACGACGTTGCG
RNA 1: GACGCAUAAAGAUGAGACGCGUUUUAGAGCUAUGCUGUUUUG
RNA 2: GGACAGCAUAGCAAGUUAAAAUAAGGCUAGUCCGUUAUCAACUUGAAAAAGUGGCACCGAGUCGGUGCUUUUU
Cas9 (SpCas9) [2]
  binding result: binds
